Experiments:
[1] = ω-transaminase activity, reverse direction: 7-aminoheptanoate to pimelate semialdehyde (L-alanine formation by RP-HPLC); type: biochemical; conditions: cell free extract, 10 mM 7-aminoheptanoate, 10 mM pyruvate, pH 7.5, 25° C., 4 h; against the empty vector control (FIG. 13)
Description: (§1) A nucleotide sequence encoding an N-terminal His-tag was added to the nucleic acid sequences from Chromobacterium violaceum, Pseudomonas syringae, Rhodobacter sphaeroides, and Vibrio fluvialis encoding the ω-transaminases of SEQ ID NOs: 7, 9, 10 and 12, respectively (see FIG. 6) such that N-terminal HIS tagged ω-transaminases could be produced. Each of the resulting modified genes was cloned into a pET21a expression vector under control of the T7 promoter and each expression vector was transformed into a BL21[DE3] E. coli host. The resulting recombinant E. coli strains were cultivated at 37° C. in a 250 mL shake flask culture containing 50 mL LB media and antibiotic selection pressure, with shaking at 230 rpm. Each culture was induced overnight at 16° C. using 1 mM IPTG.
(§2) The pellet from each induced shake flask culture was harvested via centrifugation. Each pellet was resuspended and lysed via sonication. The cell debris was separated from the supernatant via centrifugation and the cell free extract was used immediately in enzyme activity assays.
Enzyme activity assays in the reverse direction (i.e., 7-aminoheptanoate to pimelate semialdehyde) were performed in a buffer composed of a final concentration of 50 mM HEPES buffer (pH=7.5), 10 mM 7-aminoheptanoate, 10 mM pyruvate and 100 μM pyridoxyl 5′ phosphate. Each enzyme activity assay reaction was initiated by adding cell free extract of the ω-transaminase gene product or the empty vector control to the assay buffer containing the 7-aminoheptanoate and incubated at 25° C. for 4 h, with shaking at 250 rpm. The formation of L-alanine from pyruvate was quantified via RP-HPLC.

[2] = ω-transaminase activity, forward direction: pimelate semialdehyde to 7-aminoheptanoate (pyruvate formation by RP-HPLC); type: biochemical; conditions: conclusion from reverse and forward assays of Example 1
Description: as §1, §2
Enzyme activity in the forward direction (i.e., pimelate semialdehyde to 7-aminoheptanoate) was confirmed for the transaminases of SEQ ID NO 9, SEQ ID NO 10 and SEQ ID NO 12. Enzyme activity assays were performed in a buffer composed of a final concentration of 50 mM HEPES buffer (pH=7.5), 10 mM pimelate semialdehyde, 10 mM L-alanine and 100 μM pyridoxyl 5′ phosphate. Each enzyme activity assay reaction was initiated by adding a cell free extract of the ω-transaminase gene product or the empty vector control to the assay buffer containing the pimelate semialdehyde and incubated at 25° C. for 4 h, with shaking at 250 rpm. The formation of pyruvate was quantified via RP-HPLC.

[3] = ω-transaminase activity: 7-aminoheptanol to 7-oxoheptanol (L-alanine formation by RP-HPLC); type: biochemical
Description: A nucleotide sequence encoding an N-terminal His-tag was added to the Chromobacterium violaceum, Pseudomonas syringae and Rhodobacter sphaeroides nucleic acids encoding the ω-transaminases of SEQ ID NOs: 7, 9 and 10, respectively (see FIG. 6) such that N-terminal HIS tagged ω-transaminases could be produced. The modified genes were cloned into a pET21a expression vector under the T7 promoter. Each expression vector was transformed into a BL21[DE3] E. coli host. Each resulting recombinant E. coli strain were cultivated at 37° C. in a 250 mL shake flask culture containing 50 mL LB media and antibiotic selection pressure, with shaking at 230 rpm. Each culture was induced overnight at 16° C. using 1 mM IPTG.
as §2
Enzyme activity assays in the reverse direction (i.e., 7-aminoheptanol to 7-oxoheptanol) were performed in a buffer composed of a final concentration of 50 mM HEPES buffer (pH=7.5), 10 mM 7-aminoheptanol, 10 mM pyruvate, and […] pyridoxyl 5′ phosphate. Each enzyme activity assay reaction was initiated by adding cell free extract of the ω-transaminase gene product or the empty vector control to the assay buffer containing the 7-aminoheptanol and then incubated at 25° C. for 4 h, with shaking at 250 rpm. The formation of L-alanine was quantified via RP-HPLC.

[4] = from the literature; cited from earlier work
[5] = carboxylate reductase activity: pimelate to pimelate semialdehyde (NADPH consumption, A340); type: biochemical; conditions: purified enzyme enhanced by sfp gene product, 2 mM pimelate, pH 7.5, room temperature, 20 min; against the empty vector control (FIG. 8)
Description: A nucleotide sequence encoding a HIS-tag was added to the nucleic acid sequences from Segniliparus rugosus and Segniliparus rotundus that encode the carboxylate reductases of SEQ ID NOs: 4 (EFV11917.1) and 6 (ADG98140.1), respectively (see FIG. 6), such that N-terminal HIS tagged carboxylate reductases could be produced. Each of the modified genes was cloned into a pET Duet expression vector along with a sfp gene encoding a HIS-tagged phosphopantetheine transferase from Bacillus subtilis, both under the T7 promoter. Each expression vector was transformed into a BL21[DE3] E. coli host and the resulting recombinant E. coli strains were cultivated at 37° C. in a 250 mL shake flask culture containing 50 mL LB media and antibiotic selection pressure, with shaking at 230 rpm. Each culture was induced overnight at 37° C. using an auto-induction media.
The pellet from each induced shake flask culture was harvested via centrifugation. Each pellet was resuspended and lysed via sonication, and the cell debris was separated from the supernatant via centrifugation. […]
Enzyme activity assays (i.e., from pimelate to pimelate semialdehyde) were performed in triplicate in a buffer composed of a final concentration of 50 mM HEPES buffer (pH=7.5), 2 mM pimelate, 10 mM MgCl2, 1 mM ATP and 1 mM NADPH. […] The consumption of NADPH was monitored by absorbance at 340 nm. […]

[6] = carboxylate reductase activity: N7-acetyl-7-aminoheptanoate to N7-acetyl-7-aminoheptanal (NADPH consumption, A340); type: biochemical; conditions: purified enzyme enhanced by sfp gene product, 2 mM N7-acetyl-7-aminoheptanoate, pH 7.5, room temperature, 20 min; against the empty vector control (FIG. 10)
Description: The activity of each of the N-terminal His-tagged carboxylate reductases of SEQ ID NOs: 3, 5, and 6 (see Examples 2 and 3, and FIG. 6) for converting N7-acetyl-7-aminoheptanoate to N7-acetyl-7-aminoheptanal was assayed in triplicate in a buffer composed of a final concentration of 50 mM HEPES buffer (pH=7.5), 2 mM N7-acetyl-7-aminoheptanoate, 10 mM MgCl2, 1 mM ATP, and 1 mM NADPH. The assays were initiated by adding purified carboxylate reductase and phosphopantetheine transferase or the empty vector control to the assay buffer containing the N7-acetyl-7-aminoheptanoate then incubated at room temperature for 20 min. The consumption of NADPH was monitored by absorbance at 340 nm.

B1: SEQ ID NO: 7: Chromobacterium violaceum ω-transaminase, N-terminal HIS tagged (protein, listed as Chromobacterium violaceum)
chain: MQKQRTTSQWRELDAAHHLHPFTDTASLNQAGARVMTRGEGVYLWDSEGNKIIDGMAGLWCVNVGYGRKDFAEAARRQMEELPFYNTFFKTTHPAVVELSSLLAEVTPAGFDRVFYTNSGSESVDTMIRMVRRYWDVQGKPEKKTLIGRWNGYHGSTIGGASLGGMKYMHEQGDLPIPGMAHIEQPWWYKHGKDMTPDEFGVVAARWLEEKILEIGADKVAAFVGEPIQGAGGVIVPPATYWPEIERICRKYDVLLVADEVICGFGRTGEWFGHQHFGFQPDLFTAAKGLSSGYLPIGAVFVGKRVAEGLIAGGDFNHGFTYSGHPVCAAVAHANVAALRDEGIVQRVKDDIGPYMQKRWRETFSRFEHVDDVRGVGMVQAFTLVKNKAKRELFPDFGEIGTLCRDIFFRNNLIMRACGDHIVSAPPLVMTRAEVDEMLAVAERCLEEFEQTLKARGLA
modifications: N-terminal His tag
notes: Chromobacterium violaceum ω-transaminase, N-terminal HIS tagged
- acceptance of 7-aminoheptanoate as substrate (conversion of pyruvate to L-alanine) [1]: accepted 7-aminoheptanoate as substrate
- reversibility of ω-transaminase activity: pimelate semialdehyde accepted, 7-aminoheptanoate synthesized [2]: accepted pimelate semialdehyde as substrate and synthesized 7-aminoheptanoate as a reaction product
- acceptance of 7-aminoheptanol as substrate (conversion of pyruvate to L-alanine) ([3]; cell free extract, 10 mM 7-aminoheptanol, 10 mM pyruvate, pH 7.5, 25° C., 4 h, against the empty vector control (FIG. 17)): accepted 7-aminoheptanol as substrate
- acceptance of 7-oxoheptanol as substrate forming 7-aminoheptanol ([3]; concluded from the reversibility of the ω-transaminase activity (Example 1)): accept 7-oxoheptanol as substrate and form 7-aminoheptanol
- activity on 7-aminoheptanoate (conversion to pimelate semialdehyde) [4]: demonstrated analogous activity accepting 7-aminoheptanoic acid as amino donor

B2: SEQ ID NO: 4: Segniliparus rugosus carboxylate reductase, N-terminal HIS tagged (protein, listed as Segniliparus rugosus)
chain: MGDGEERAKRFFQRIGELSATDPQFAAAAPDPAVVEAVSDPSLSFTRYLDTLMRGYAERPALAHRVGAGYETISYGELWARVGAIAAAWQADGLAPGDFVATVGFTSPDYVAVDLAAARSGLVSVPLQAGASLAQLVGILEETEPKVLAASASSLEGAVACALAAPSVQRLVVFDLRGPDASESAADERRGALADAEEQLARAGRAVVVETLADLAARGEALPEAPLFEPAEGEDPLALLIYTSGSTGAPKGAMYSQRLVSQLWGRTPVVPGMPNISLHYMPLSHSYGRAVLAGALSAGGTAHFTANSDLSTLFEDIALARPTFLALVPRVCEMLFQESQRGQDVAELRERVLGGRLLVAVCGSAPLSPEMRAFMEEVLGFPLLDGYGSTEALGVMRNGIIQRPPVIDYKLVDVPELGYRTTDKPYPRGELCIRSTSLISGYYKRPEITAEVFDAQGYYKTGDVMAEIAPDHLVYVDRSKNVLKLSQGEFVAVAKLEAAYGTSPYVKQIFVYGNSERSFLLAVVVPNAEVLGARDQEEAKPLIAASLQKIAKEAGLQSYEVPRDFLIETEPFTTQNGLLSEVGKLLRPKLKARYGEALEARYDEIAHGQADELRALRDGAGQRPVVETVVRAAVAISGSEGAEVGPEANFADLGGDSLSALSLANLLHDVFEVEVPVRIIIGPTASLAGIAKHIEAERAGASAPTAASVHGAGATRIRASELTLEKFLPEDLLAAAKGLPAADQVRTVLLTGANGWLGRFLALEQLERLARSGQDGGKLICLVRGKDAAAARRRIEETLGTDPALAARFAELAEGRLEVVPGDVGEPKFGLDDAAWDRLAEEVDVIVHPAALVNHVLPYHQLFGPNVVGTAEIIRLAITAKRKPVTYLSTVAVAAGVEPSSFEEDGDIRAVVPERPLGDGYANGYGNSKWAGEVLLREAHELVGLPVAVFRSDMILAHTRYTGQLNVPDQFTRLVLSLLATGIAPKSFYQQGAAGERQRAHYDGIPVDFTAEAITTLGAEPSWFDGGAGFRSFDVFNPHHDGVGLDEFVDWLIEAGHPISRIDDHKEWFARFETAVRGLPEAQRQHSLLPLLRAYSFPHPPVDGSVYPTGKFQGAVKAAQVGSDHDVPHLGKALIVKYADDLKALGLL
modifications: N-terminal His tag
notes: Segniliparus rugosus carboxylate reductase, N-terminal HIS tagged
- acceptance of pimelate as substrate (NADPH consumption) [5]: accepted pimelate as substrate

B3: SEQ ID NO: 5: Mycobacterium massiliense carboxylate reductase, N-terminal HIS tagged (protein)
chain: MTNETNPQQEQLSRRIESLRESDPQFRAAQPDPAVAEQVLRPGLHLSEAIAALMTGYAERPALGERARELVIDQDGRTTLRLLPRFDTTTYGELWSRTTSVAAAWHHDATHPVKAGDLVATLGFTSIDYTVLDLAIMILGGVAVPLQTSAPASQWTTILAEAEPNTLAVSIELIGAAMESVRATPSIKQVVVFDYTPEVDDQREAFEAASTQLAGTGIALETLDAVIARGAALPAAPLYAPSAGDDPLALLIYTSGSTGAPKGAMHSENIVRRWWIREDVMAGTENLPMIGLNFMPMSHIMGRGTLTSTLSTGGTGYFAASSDMSTLFEDMELIRPTALALVPRVCDMVFQRFQTEVDRRLASGDTASAEAVAAEVKADIRDNLFGGRVSAVMVGSAPLSEELGEFIESCFELNLTDGYGSTEAGMVFRDGIVQRPPVIDYKLVDVPELGYFSTDKPHPRGELLLKTDGMFLGYYKRPEVTASVFDADGFYMTGDIVAELAHDNIEIIDRRNNVLKLSQGEFVAVATLEAEYANSPVVHQIYVYGSSERSYLLAVVVPTPEAVAAAKGDAAALKTTIADSLQDIAKEIQLQSYEVPRDFIIEPQPFTQGNGLLTGIAKLARPNLKAHYGPRLEQMYAEIAEQQAAELRALHGVDPDKPALETVLKAAQALLGVSSAELAADAHFTDLGGDSLSALSFSDLLRDIFAVEVPVGVIVSAANDLGGVAKFVDEQRHSGGTRPTAETVHGAGHTEIRAADLTLDKFIDEATLHAAPSLPKAAGIPHTVLLTGSNGYLGHYLALEWLERLDKTDGKLIVIVRGKNAEAAYGRLEEAFDTGDTELLAHFRSLADKHLEVLAGDIGDPNLGLDADTWQRLADTVDVIVHPAALVNHVLPYNQLFGPNVVGTAEIIKLAITTKIKPVTYLSTVAVAAYVDPTTFDEESDIRLISAVRPIDDGYANGYGNAKWAGEVLLREAHDLCGLPVAVFRSDMILAHSRYTGQLNVPDQFTRLILSLIATGIAPGSFYQAQTTGERPLAHYDGLPGDFTAEAITTLGTQVPEGSEGFVTYDCVNPHADGISLDNFVDWLIEAGYPIARIDNYTEWFTRFDTAIRGLSEKQKQHSLLPLLHAFEQPSAAENHGVVPAKRFQHAVQAAGIGPVGQDGTTDIPHLSRRLIVKYAKDLEQLGLL
modifications: N-terminal His tag; Mycobacterium massiliense
notes: Mycobacterium massiliense carboxylate reductase, N-terminal HIS tagged
- acceptance of N7-acetyl-7-aminoheptanoate as substrate (NADPH consumption) [6]: accepted N7-acetyl-7-aminoheptanoate as substrate
